# Results as given in IntAct's records for PubMed 17167418.
# B1: Synaptotagmin-2 (Mus musculus), P46097 (parent)
# chain: MRNIFKRNQEPNVAPATTTATMPLAPVAPADNSTESTGPGESQEDMFAKLKEKFFNEINKIPLPPWALIAMAVVAGLLLLTCCFCICKKCCCKKKKNKKEKGKGMKNAMNMKDMKGGQDDDDAETGLTEGEGEGEEEKEPENLGKLQFSLDYDFQANQLTVGVLQAAELPALDMGGTSDPYVKVFLLPDKKKKYETKVHRKTLNPAFNETFTFKVPYQELAGKTLVMAIYDFDRFSKHDIIGEVKVPMNTVDLGQPIEEWRDLQGGEKEEPEKLGDICTSLRYVPTAGKLTVCILEAKNLKKMDVGGLSDPYVKIHLMQNGKRLKKKKTTVKKKTLNPYFNESFSFEIPFEQIQKVQVVVTVLDYDKLGKNEAIGKIFVGSNATGTELRHWSDMLANPRRPIAQWHSLKPEEEVDALLGKNK
# Variants of: B1
# Conditions: with bxb_clobo botB
row,Variant,effect of a mutation on the interaction
1,F55A,disrupting interaction strength
2,F54A,disrupting interaction strength
3,F47A,disrupting interaction strength
